Assay [1] concerns the target ToLCKeV MBP-AC1 fusion protein (replication initiator protein, Rep) (Tomato leaf curl Kerala virus-[India:Kerala II:2005]).
Assay [2] addresses ToLCKeV MBP-AC3 fusion protein (Tomato leaf curl Kerala virus-[India:Kerala II:2005]). As to the kind of experiment: sucrose gradient ultracentrifugation + SEC; 10-40% (w/v) sucrose step gradient, 25 mM Tris (pH 8.0), 250 mM NaCl, 2 mM sodium bisulphite, 0.05% Triton X-100, 35,000 rpm 20 h 4°C, against mass markers; gel filtration on Superdex 200 5/150. (In general: Size exclusion chromatography separates by hydrodynamic size, large species first.)

For orientation: stoichiometry N means the number of molecules, sites or subunits per partner or assembly. Consider “ToLCKeV MBP-AC3 fusion protein (natural protein)”, for which the ATPase activity of AC1 (Rep), release of Pi from [gamma-32P]ATP, with varying MBP-AC3 (increase at 0.02-0.2 pM, reduced at higher AC3: bell shaped curve); increase over Rep alone set as 100% in assay [1] is 80%. Further, the stoichiometry N in assay [2] was 12 to 14 mer.

Values taken from paper PMC2901266.
